# Measurements taken from patent publication US8252303B2, “Injectable depot compositions and uses thereof” (Durect Corporation, priority 2002, dated 2012).
# Test: Preliminary stability of PDGF preformulations in the gel vehicle (SEC and rpHPLC)
# Assay type: physicochemical
# Settings: 5° C. for 1 day, Bulk PDGF as reference
# Protocol: All lyophilized protein formulations as listed in Tables 8 and 9, were mixed into a gel vehicle with the composition of PLGA RG502/Benzyl Benzoate (BB)/benzyl alcohol (BA) of 40/45/15 with the loading of the protein formulation about 10 wt %. After being stored at 5° C. for 1 day, the mixtures were extracted with an organic solvent mixture of methylene chloride and acetone (ratio of 50/50) as described in the example 15 above. The purity of the PDGF-BB was analyzed by both reverse phase HPLC (rpHPLC) and size exclusion chromatography (SEC). In general, no distinguishable degradation of the PDGF-BB was found in the PDGF-BB formulation incorporated with the excipients as described in the Example 18 and mixed with the gel vehicle of the present invention.
substance,measurement,setting,value
"Bulk PDGF: PDGF-BB bulk solution, i.e., aqueous solution of PDGF in acetate buffer",% PDGF dimmer by SEC,Table 8 (succinate),0.73%
same,% other peaks by rp-HPLC,Table 8 (succinate),0.0%
same,% peak at RRT = 1.10 by rp-HPLC,Table 8 (succinate),1.2%
same,% PDGF dimer by SEC,Table 9 (histidine),0.73%
same,% other peaks by rp-HPLC,Table 9 (histidine),0.0%
same,% peak at RRT = 1.10 by rp-HPLC,Table 9 (histidine),1.2%
